Patent publication US20030027314A1
Each block holds one binder with its values, some of them ahead of it.

What was measured:
[1] = target: C/EBP bZIP domain (chimeric GCN4-C/EBP protein) (C/EBP part: 'present in rat liver'; GCN4 part: yeast); assay: CD thermal melt, equimolar mixture, 150 mM KCl
[2] = target: c-Myc bHLH protein (murine) (UniProt P01108); assay: heterodimer with c-Myc, study of FIG. 9 (method not given)
c-Jun (unmodified) = assay: from thermal melts, Kd at 37 °C (FIG. 4)
CREB (unmodified) = target: T1, CREB (unmodified); assay: thermal melting curve, mixture (FIG. 3)
T1 sequence (chain, from a related filing, looked up): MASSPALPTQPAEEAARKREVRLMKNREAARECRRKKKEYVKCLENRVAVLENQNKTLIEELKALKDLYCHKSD

B1: 3heptad-C/EBP (three heptad acidic extension appended onto the C/EBP leucine zipper) (designed binder, not shown: a dimerising Fc or GST)
chain: ASMTGGQQMGRDPGGGLARENEELEKEAEELEQENAELEQKVLELTSDNDRLRKRVEQLSRELDTLRGIFRQLPESSLVKAMGNCA
Kd [1]: 0.6 nM
Tm [1]: 61 °C
delta G at 25 °C [1]: -12.6 kcal/mol

B3: AcidMax (Max with a polyglutamic acid extension on the dimerization domain) (designed binder)
chain: MASMTGGQQMGRDPDEEEDDEEELEELEDSFHSLRDSVPSLQGEKASRAQILDKATEYIQYMRRKNHTHQQDIDDLKRQNALLEQQVRALEKARSSAQLQT
Kd [2]: 0.002 nM

B5: New4hepCREB (CREB with the new 4heptad acidic extension, asparagine changed to leucine) (designed binder)
chain: MDYKDDDDKHMASMTGGQQMGRDPDLEQRAEELARENEELEKEAEELEQELAELENRVAVLENQNKTLIEELKALKDLYCHKSD
Tm (CREB (unmodified)): 69.5 °C

Continued, values first:

Kd [2]: 0.6 nM
B2: 0heptadMax (dimerization domain of Max without an acidic extension) (protein)
chain: ASMTGGQQMGRDPDLEELEDSFHSLRDSVPSLQGEKASRAQILDKATEYIQYMRRKNHTHQQDIDDLKRQNALLEQQVRALEKARSSAQLQT

Kd (c-Jun (unmodified)): 20000 nM
B4: c-Jun (unmodified) (protein, from a related filing)
chain: PLSPIDMESQERIKAERKRMRNRIAASKCRKRKLERIARLEEKVKTLKAQNSELASTANMLREQVAQLKQKVMNHVNSGCQLMLTQQLQTF
